Results on 167 variants are retold here after the RNAGym collection of RNA variant scans (doi:10.7554/elife.80360).

The chains are these.
B1: Twister Ribozyme (parent)
chain: AACACUGCCAAUGCCGGUCCCAAGCCCGGAUAAAAGUGGAGGGGGCGG

The variants in this data set derive from B1. Nature of the data set: self-cleavage, relative activity (ratio to wild type); higher = more cleavage; co-transcriptional.
Turning to U12C U31C, the self-cleavage was 0.938.
To C8A A11C belongs 0.514; to A1G C46A, 0.412; to G29U C46A, 0.876.
To G36U G47U belongs 0.412; to C27G A35C, 0.104; to A10G A40U, 0.157.
With A10G G48A, the self-cleavage was determined as 0.902.
On to C14U G28A, for which the self-cleavage stood at 1.09.
As for A1G A30U, the self-cleavage is 0.436.
To C25A G48C belongs 0.137.
With G28C A35U, the self-cleavage turned out to be 0.806.
In the case of A10G U18G, the self-cleavage came out at 0.0537.
Take G7A U37A: the self-cleavage was 0.144.
Under U37A stands 0.883; under A10G A30C, 0.981; under G29C U31C, 0.999.
Under A4G A40C stands 0.0709.
A11U G44U: the self-cleavage was 1.07.
Under G16C G24A stands 0.0685; under G39U A40G, 0.128.
To C25U G28U belongs 0.724; to U6C G29A, 0.34; to C26U G47U, 0.15.
Under C21U A23G stands 0.0801; under C15G A40G, 0.114.
For G13C G43U, the self-cleavage came to 0.128.
As for G7A U31G, the self-cleavage stood at 0.647.
As to C8U A22C, the self-cleavage worked out at 0.863.
Under C27U U31C stands 0.651; under A10G C20A, 0.136.
To C25G C27G belongs 0.0774; to A4C C5U, 0.701; to C27U A40U, 0.164.
For the variant C21A A22G, the self-cleavage worked out at 0.101.
Under C5U U6A stands 0.674; under U12C G36U, 0.543.
For the variant A1U C19A, the self-cleavage came out at 0.0579.
With U12C C46U, the self-cleavage came to 0.957.
To C21A G47A belongs 0.135; to C19A C20U, 0.0818.
Under C9G A32U stands 0.517; under G16U A32G, 1.02.
As to G17U G38A, the self-cleavage came out at 0.206.
To A2U C20A belongs 0.08; to A11U A35G, 0.919; to G13C G24A, 0.0986.
To U18C C27U belongs 0.182.
Under G7U G16A stands 0.0674; under A11U G38A, 1.16.
C14U U37G: the self-cleavage turned out to be 0.845.
To C5A C19U belongs 0.424; to C3A G48U, 0.282.
For the variant C14U G41C, the self-cleavage stood at 0.343.
To G16A A23G belongs 0.161; to A11C G24U, 0.0789.
Regarding U18G G45U, the self-cleavage turned out to be 0.0852.
For U18G G45C, the self-cleavage stood at 0.0995.
Under C8U C46G stands 0.567.
For the variant A1G U37A, the self-cleavage was found to be 0.307.
As for C19U U37G, the self-cleavage came to 0.621.
To C25G G39C belongs 0.109.
A30C G44A: the self-cleavage was 1.01.
To A23U A30G belongs 0.506; to C15G G42U, 0.084; to C5G C27G, 0.0623.
With C5U C21U, the self-cleavage was 0.0809.
To A10G G42C belongs 0.618; to C25G G42U, 0.112.
To A35C A40C belongs 0.154.
On to C5A G48C, for which the self-cleavage stood at 0.53.
As for G16A G36A, the self-cleavage stood at 0.409.
Under A1G A22U stands 0.255.
Under A1G A40U stands 0.204; under A32G A33U, 0.914; under C15U A32G, 0.891.
Take C9A A10C: the self-cleavage came out at 0.574.
As to A10C U12G, the self-cleavage came to 1.06.
Consider G13C A22G, for which the self-cleavage came out at 0.103.
As for A1C G36C, the self-cleavage came out at 0.159.
To C9A G13C belongs 0.729; to C9G U31A, 0.648.
As for U6G G29U, the self-cleavage came out at 0.173.
In the case of C15G U37A, the self-cleavage amounted to 0.0636.
Under C21A G43U stands 0.0849; under A33C G44C, 0.852.
Under U18C C25U stands 0.16; under C8G C15A, 0.0877.
Under A4G A30C stands 0.736.
As for A4G G7C, the self-cleavage turned out to be 0.0363.
Under C3G A35C stands 0.397; under G39A, 0.568; under A4C U6G, 0.0323.
To A4G C26U belongs 0.252; to G16U G24U, 0.0815; to G17C G24U, 0.0734.
In the case of C14U G48C, the self-cleavage was 1.26.
Under A10U U18G stands 0.115; under A34U G39U, 0.139.
To C19U G41A belongs 0.134; to C8G G47A, 0.208.
In the case of G24C G44A, the self-cleavage amounted to 0.0864.
Under G7C C8G stands 0.0684; under U6A C9G, 0.244; under U31G C46A, 1.1.
Under G43U C46A stands 0.271.
For C15U G43U, the self-cleavage was 0.277.
On to A10G A22U, for which the self-cleavage came out at 0.971.
Under U12C U37A stands 0.747; under C21A C25G, 0.0507; under G16A U18G, 0.0863.
Under C5G C25U stands 0.411.
Under A34C G39U stands 0.11; under C3G U31G, 0.44.
Regarding G38U G39U, the self-cleavage was determined as 0.0892.
C3G C27G: the self-cleavage is 0.0859.
For the variant A11U U12G, the self-cleavage was 1.05.
On to U18A A34C, for which the self-cleavage was 0.113.
Take A23G C46U: the self-cleavage was 0.579.
In the case of A2C C8U, the self-cleavage stood at 0.0384.
Under C9A A35G stands 0.548; under U12C C21U, 0.0795.
Under C3G G36A stands 0.124.
In the case of G29U G48C, the self-cleavage came out at 1.11.
Consider C9A G44A, for which the self-cleavage was 0.664.
Under C14G G36C stands 0.065; under C15A G42U, 0.14; under U31A G47U, 0.621.
Under A1C U12A stands 0.223; under A11C G41U, 0.42.
To A11C G41C belongs 0.255; to C8A A35C, 0.405.
For the variant G43A C46G, the self-cleavage was 0.367.
In the case of C15A A30G, the self-cleavage is 0.492.
Under A1C G48A stands 0.164; under G7U G39C, 0.0429; under A22U G39U, 0.0706.
In the case of A40U G43U, the self-cleavage came to 0.0936.
Regarding A4U C20G, the self-cleavage is 0.0603.
For U6C G44A, the self-cleavage is 0.63.
In the case of A10U G42U, the self-cleavage was 0.447.
To A23G G29A belongs 0.307; to U31A G48U, 0.881.
Under C15U A30U stands 0.925; under G43A G44U, 0.271.
With G24A G36A, the self-cleavage stood at 0.0947.
To C14U C25G belongs 0.627; to G13U G39U, 0.0998.
To A23C G36A belongs 0.09.
To A34G U37A belongs 0.444; to A33U G47A, 0.739; to C3A A34C, 0.0676.
With C3U G7A, the self-cleavage was 0.0905.
With C3U C15G, the self-cleavage came to 0.125.
Under G41C G44U stands 0.147.
A10C A30G: the self-cleavage was found to be 0.969.
As for A22G U31C, the self-cleavage came to 0.304.
With C5G U37A, the self-cleavage was 0.404.
U6C C25G: the self-cleavage was 0.0594.
For G13U A34C, the self-cleavage was found to be 0.083.
Turning to C27A G36U, the self-cleavage worked out at 0.128.
Turning to C9U G41U, the self-cleavage turned out to be 0.187.
For C5G G48U, the self-cleavage came to 0.627.
On to C14A A34G, for which the self-cleavage came out at 0.88.
For A1C C25G, the self-cleavage worked out at 0.13.
In the case of G13A A30C, the self-cleavage was found to be 0.771.
Under A22C G38A stands 0.894.
